Test results taken from PMC2447174, “A Cytoplasmic Domain Mutation in ClC-Kb Affects Long-Distance Communication Across the Membrane” (PLoS ONE, 2008).

Key:
[1] = target: the molecule itself; test: SEC-MALS; Shodex PROTEIN KW-802.5 column, 200 mM NaCl, 20 mM Tris-Cl pH 7.5, protein at 1 mg/mL, room temperature (23°C); self-association, dimer
[2] = target: the molecule itself; test: SEC-MALS; data not shown; 'monodispersed dimers, as observed with wild-type'; method taken from the wild-type experiment
[3] = target: the molecule itself; test: cross-linking; spontaneous disulfide cross-linking of introduced cysteines in purified KbC in TBS7.5 (200 mM NaCl, 10 mM Tris pH 7.5, 5 mM ß-mercaptoethanol); SDS-PAGE in reducing (250 mM ß-mercaptoethanol) and oxidizing conditions

Protein	stoichiometry N [2]	other results
ClC-Kb C-terminal domain (domain or fragment, human, UniProt P51801 538-684, looked up, ClC-Kb chloride channel, human, C-terminal cytoplasmic domain, amino acids 538-684; read here as KbC following MBP; MBP was removed with Factor Xa and washed away on the cation-exchange column; also called ClC-Kb cytoplasmic domain; ClC-Kb C-terminal cytoplasmic domain; source: E. coli, purified (amylose column, Factor Xa digestion, cation exchange); not shown: MBP, N-terminal, cleaved) RNIGSHRVRVEHFMNHSITTLAKDMPLEEVVKVVTSTDVAKYPLVESTESQILVGIVRRAQLVQALKAEPPSWAPGHQQCLQDILAAGCPTEPVTLKLSPETSLHEAHNLFELLNLHSLFVTSRGRAVGCVSWVEMKKAISNLTNPP	–	stoichiometry N [1]: 2
ClC-Kb C-terminal domain double mutant K604C-A644C (domain or fragment, human, UniProt P51801 538-684, looked up, ClC-Kb chloride channel, human, C-terminal cytoplasmic domain, amino acids 538-684, K604C and A644C; also called 604-644 cysteine double mutant; source: E. coli, purified (amylose column, Factor Xa digestion, cation exchange); not shown: MBP, N-terminal, cleaved) RNIGSHRVRVEHFMNHSITTLAKDMPLEEVVKVVTSTDVAKYPLVESTESQILVGIVRRAQLVQALCAEPPSWAPGHQQCLQDILAAGCPTEPVTLKLSPETSLHECHNLFELLNLHSLFVTSRGRAVGCVSWVEMKKAISNLTNPP	2	–
ClC-Kb C-terminal domain double mutant L603C-H645C (domain or fragment, human, UniProt P51801 538-684, looked up, ClC-Kb chloride channel, human, C-terminal cytoplasmic domain, amino acids 538-684, L603C and H645C; also called 603-645 cysteine double mutant; source: E. coli, purified (amylose column, Factor Xa digestion, cation exchange); not shown: MBP, N-terminal, cleaved) RNIGSHRVRVEHFMNHSITTLAKDMPLEEVVKVVTSTDVAKYPLVESTESQILVGIVRRAQLVQACKAEPPSWAPGHQQCLQDILAAGCPTEPVTLKLSPETSLHEACNLFELLNLHSLFVTSRGRAVGCVSWVEMKKAISNLTNPP	2	–
ClC-Kb C-terminal domain with the L650C mutation (domain or fragment, human, UniProt P51801 538-684, looked up, ClC-Kb chloride channel, human, C-terminal cytoplasmic domain, amino acids 538-684, L650C; also called ClC-Kb-L650C; L650C mutant; source: E. coli, purified (amylose column, Factor Xa digestion, cation exchange); not shown: MBP, N-terminal, cleaved) RNIGSHRVRVEHFMNHSITTLAKDMPLEEVVKVVTSTDVAKYPLVESTESQILVGIVRRAQLVQALKAEPPSWAPGHQQCLQDILAAGCPTEPVTLKLSPETSLHEAHNLFECLNLHSLFVTSRGRAVGCVSWVEMKKAISNLTNPP	–	binding result [3]: binds
